T1: Mas-DH[K22Q]+Gly
T1 chain: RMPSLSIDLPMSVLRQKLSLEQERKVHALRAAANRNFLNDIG

T2: Mas-DH+Gly (42 amino acid precursor of Manduca sexta diuretic hormone)
T2 chain: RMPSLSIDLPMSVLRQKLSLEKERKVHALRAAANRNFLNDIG


Legend:
[1] = target: T1, Mas-DH[K22Q]+Gly
[2] = target: T2, Mas-DH+Gly (42 amino acid precursor of …)

Row | Protein | proteolytic fragments recovered from culture medium of the yap3 deletion strain HKY20[pKSC3] (RPLC, ESI-MS) [1] | proteolytic fragments recovered from culture medium of protease deletion strains (RPLC, ESI-MS) [2] | proteolytic fragments recovered from culture medium of the mkc7 deletion strain HKY21[pKSC3] (RPLC, ESI-MS) [1]
1 | Mkc7 endoprotease (encoded by MKC7) (protein) DDDYELVELTNQNSFYSVELDIGTPPQKVTVLVDTGSSDLWVTGSDNPYCSTKKKDTTGSSFKQVNKDALASVVESVFTEISYDTTIVTSEATATFDSTASTSQLIDCATYGTFNTSKSSTFNSNNTEFSIAYGDTTFASGTWGHDQLSLNDLNITGLSFAVANETNSTVGVLGIGLPGLESTYSGVSLSSVQKSYTYNNFPMVLKNSGVIKSTAYSLFANDSDSKHGTILFGAVDHGKYAGDLYTIPIINTLQHRGYKDPIQFQVTLQGLGTSKGDKEDNLTTLTTTKIPVLLDSGTTISYMPTELVKMLADQVGATYSSAYGYYIMDCIKEMEEESSIIFDFGGFYLSNWLSDFQLVTDSRSNICILGIAPQSDPTIILGDNFLANTYVVYDLDNMEISMAQANFSDDGEYIEIIESAVPSALKAPGYSSTWSTYESIVSGGNMFSTAANSSISYFASTSHSATSSSSSKGQKTQTSTTALSISKSTSSTSSTGMLSPTSSSSTRKEN | suggesting that Mkc7 cleaved after Lys^25 | both Yap3 and Mkc7 are capable of contributing to the cleavage of Mas-DH+Gly at the Lys^22 residue, as well as at other sites | –
2 | Yap3 endoprotease (Yeast Aspartyl Protease 3, encoded by YAP3) (protein) ADGYEEIIITNQQSFYSVDLEVGTPPQNVTVLVDTGSSDLWIMGSDNPYCSSNSMGSSRRRVIDKRDDSSSGGSLINDINPFGWLTGTGSAIGPTATGLGGGSGTATQSVPASEATMDCQQYGTFSTSGSSTFRSNNTYFSISYGDGTFASGTFGTDVLDLSDLNVTGLSFAVANETNSTMGVLGIGLPELEVTYSGSTASHSGKAYKYDNFPIVLKNSGAIKSNTYSLYLNDSDAMHGTILFGAVDHSKYTGTLYTIPIVNTLSASGFSSPIQFDVTINGIGISDSGSSNKTLTTTKIPALLDSGTTLTYLPQTVVSMIATELGAQYSSRIGYYVLDCPSDDSMEIVFDFGGFHINAPLSSFILSTGTTCLLGIIPTSDDTGTILGDSFLTNAYVVYDLENLEISMAQARYNTTSENIEIITSSVPSAVKAPGYTNTWSTSASIVTGGNIFTVNSSQTASFSGNLTTSTASATSTSSKRN | – | both Yap3 and Mkc7 are capable of contributing to the cleavage of Mas-DH+Gly at the Lys^22 residue, as well as at other sites | suggesting that Yap3 cleaved after Arg at the two sites E R ↓ K V and L R ↓ Q K

— patent US20030044896
